“Also recorded” adds a separate entry of the source.
How the values were obtained:
C. difficile R20291 = experiment: Lytic activity of LHD on R20291 in different pH conditions; assay type: cell-based, Clostridium difficile
Description: Prior to tests, bacterial optical density at 600 nm (OD600) was adjusted to approximately 0.8-1.0. Protein LHD was added into the cell re-suspension with the final concentration of 200 μg/ml. The drop in OD600 at 37° C. was measured once per 20 minutes for 60 min. Bacterial re-suspension with sterilized water was also set as a control. Data are present as “Mean±SD”. Experiments were repeated 3 times, and representative data were shown.
Prior to tests, bacterial optical density at 600 nm (OD600) was adjusted to approximately 0.8-1.0. Protein LHD was added into the cell re-suspension with the final concentration of 100 μg/ml. The drop in OD600 at 37° C. was measured once per 20 minutes for 60 min. Bacterial re-suspension with sterile water was also set as a control. Experiments were repeated 3 times, and representative data were shown. […]

[1] = test system: C. difficile R20291 spores; experiment: Treatment efficacy in the mouse model of CDI; assay type: in vivo, C57BL/6 mice; conditions: mice
Description: After 5 days of antibiotic pretreatment, mice were given autoclaved water for 2 days, followed by a single dose of clindamycin (10 mg/kg) intraperitoneally, 1 day before (day-1) challenge with C. difficile R20291 spores by gavage (day 0). The first group (R20291+PB) was infected with 10^6 C. difficile R20291 spores on day 0, and was given PBS (PB) by gavage at 4 h after spore gavage, followed by administration of PB by gavage twice a day from the first day (day 1) to the seventh day (day 7) after spore gavage. The second group (LHD+R20291) was given 400 μg LHD by gavage at 4 h after spore gavage, followed by treatments of 400 μg LHD by gavage twice a day from day 1 to day 7 after spore gavage.
C57BL/6 mice (6-week-old) were purchased from Charles River Laboratories, MA. The mice were housed in groups of 5 animals per cage under the same conditions. All studies followed the Guide for the Care and Use of Laboratory Animals of the National Institutes of Health, and were approved by the Institutes Animal Care and Use Committee (IACUC) at University of South Florida under the animal protocol number 1S00003756. Mouse model of CDI was established as described previously (Zhang, Zhao et al. 2015). The experimental design is illustrated in FIG. 6. Briefly, twenty BL6/C57 female mice were divided into two groups (n=10). Before challenge, mice were pre-treated with antibiotics mixture (ampicillin (200 mg/kg), kanamycin (40 mg/kg), gentamicin (3.5 mg/kg), colistin (4.2 mg/kg), metronidazole (21.5 mg/kg) and vancomycin (4.5 mg/kg)) in drinking water for five days. After that, all mice were given autoclaved water for 2 days, followed by a single dose of clindamycin (10 mg/kg) intraperitoneally 1 day before (day-1) challenge with C. difficile R20291 spores at 10^6 by gavage (day 0). At 4-hr post infection, one group of mice (R20291+LHD) were given a dose of 400 μg LHD in 200 μL of PBS by gavage, and another group of mice (R20291+PB) received sterilized PBS as control. From the first day (day 1) to the seventh day (day 7) after infection, mice were given a dose of 400 μg LHD or PBS by gavage twice a day. Weight changes, diarrhea, and survivals of the mice were recorded during the 7-day monitoring period. Fecal samples from mice were collected at days 0, 1, 3, 5, and 7 post challenge for quantitating C. difficile spores and TcdA/TcdB concentration.
Fecal samples were collected on days 1, 3, 5, 7 post-infection. 50 mg of feces were dissolved with 500 μl sterile MilliQ water for 16 h at 4° C., and then treated with 500 μl of purified ethanol (Sigma-Aldrich) for 60 min at room temperature to kill vegetative cells. Samples were vortexed, serially diluted and plated onto selective medium supplemented with taurocholate (0.1% w/v), Cefoxitin (16 μg/mL), L-cycloserine (250 μg/mL). The plates were incubated anaerobically at 37° C. for 48 h, colonies counted and results expressed as the CFU/gram of feces.
After challenges with C. difficile spores, feces were collected and dissolved in an equal volume (g/ml) of sterile PBS containing protease inhibitor cocktail and the supernatants were collected after centrifugation and stored at −80° C. TcdA/TcdB concentrations in the fecal samples of […] were determined by ELISA. Brieflly, 96-well Costar microplates were coated with 100 μl of anti-TcdA antibody (1 μg/ml) and anti-TcdB antibody (1 μg/ml) overnight in phosphate-buffered saline (PBS) at 4° C. On the next day, each well was blocked with 300 ul of blocking buffer (PBS+5% dry milk) at RT for 2 hrs. Next, standards and samples were added to each well (100 μl) in duplicate and incubated for 90 min at 25° C. After another set of washes, HRP-chicken anti-C. difficile Toxin A or B (1:5,000 dilution in PBS, Gallus Immunotech, Shirley, MA) was added to wells for 30 min at RT. A final set of 3 washes preceded the addition of the TMB Microwell Peroxidase Substrate for 20 minutes at RT in the dark. […]

[2] = test system: C. difficile strains M120, VPI 10463, CD630, LC693, 1377; experiment: Optical drop assay, lytic activity on other clinical epidemic C. difficile strains; assay type: cell-based, Clostridium difficile
Text: C. difficile strains R20291 (ribotype 027), M120 (ribotype 078), VPI 10463 (ribotype 087; ATCC 43255), CD630 (ribotype 012), LC693 (ribotype unknown, ST201), and 1377 (ribotype 012) were used in this study. Strains M120 and VPI 10463 were provided by Dr. Joseph A. Sorg from Texas A&M University. Strains R20291 and CD630 were provided by Dr. Abraham L. Sonenshein from Tufts University. Strains 1377 and LC693 were epidemic clinical strains in China (Li, Liu et al. 2015, Peng, Liu et al. 2017).
The lytic activity of proteins LHD and LCD against C. difficile strains was determined as previously described (Wang, Euler et al. 2015). Briefly, C. difficile strains were cultured in an anaerobic chamber to mid-log phase, and the bacterial pellets were harvested by centrifugation at 3000×g for 5 min. Pellets were washed twice and re-suspended in sterilized ddH2O, and resuspensions were not buffered. Prior to tests, bacterial optical density at 600 nm (OD600) was adjusted to approximately 0.8-1.0. Proteins LHD and LCD were added into the cell re-suspension with the final concentration of 200 μg/ml. The drop in OD600 at 37° C. was measured every 10 minutes for 60 min˜90 min. Bacterial re-suspension with sterilized water was also set as a control. Three repeats were included in each test.

[3] = 400 μg LHD by gavage twice a day, vs PBS
[4] = R20291 spores, 400 μg LHD by gavage twice a day

B1: LHD: Fusion of phage phiC2 lysin catalytic domain (LCD, 179aa), (GGGGS)3 linker and human alpha-defensin 5; SEQ ID NO:1 (protein)
chain: MKICITVGHSILKSGACTSADGVVNEYQYNKSLAPVLADTFRKEGHKVDVIICPEKQFKTKNEEKSYKIPRVNSGGYDLLIELHLNASNGQGKGSEVLYYSNKGLEYATRICDKLGTVFKNRGAKLDKRLYILNSSKPTAVLIESFFCDNKEDYDKAKKLGHEGIAKLIVEGVLNKNINGGGGSGGGGSGGGGSATCYCRTGRCATRESLSGVCEISGRLYRLCCR
- lytic activity at pH (C. difficile R20291; PH of 5, R20291): partially active
- lytic activity at pH (C. difficile R20291; PHs of 2, 3, and 4, R20291): lost almost all activity
- lytic activity at pH (C. difficile R20291; PHs of 6 and 7, 200 μg/ml, R20291): more efficiently
- number of C. difficile spores in feces [1, 3]: significantly decreased
- toxin-level in feces (TcdA, TcdB) [1, 3]: significantly decreased
- survival ([1]; 7-day experimental period, 400 μg LHD by gavage twice a day): all mice receiving the treatment of LHD survived
- diarrhea rate [1, 4]: 60%
- duration of diarrhea [1, 4]: 3 days
- weight loss ([1]; R20291 spores, 400 μg LHD by gavage twice a day, vs PBS): decreased both weight loss and diarrhea rate significantly; also recorded: significantly less weight
- weight recovery ([1]; from 3 dpi to 7 dpi, vs PBS): slower
- lytic activity (drop in OD600) ([2]; different types of clinical epidemic strains, 200 μg/ml): potent lytic activities
- lytic activity compared with LCD ([2]; strain M120, p<0.05): more potent than LCD
- lytic activity compared with LCD ([2]; strains VP110463, CD630, LC693 and 1377): slightly more potent

— US12630596B2, “Engineered lysin-human defensin protein” (priority 2018, dated 2026)
